Target: human growth hormone receptor on IM-9 cells (human) (UniProt P10912)
Assay: cell-based or functional assay

Chain of UniProt P10912 (P10912 19-638): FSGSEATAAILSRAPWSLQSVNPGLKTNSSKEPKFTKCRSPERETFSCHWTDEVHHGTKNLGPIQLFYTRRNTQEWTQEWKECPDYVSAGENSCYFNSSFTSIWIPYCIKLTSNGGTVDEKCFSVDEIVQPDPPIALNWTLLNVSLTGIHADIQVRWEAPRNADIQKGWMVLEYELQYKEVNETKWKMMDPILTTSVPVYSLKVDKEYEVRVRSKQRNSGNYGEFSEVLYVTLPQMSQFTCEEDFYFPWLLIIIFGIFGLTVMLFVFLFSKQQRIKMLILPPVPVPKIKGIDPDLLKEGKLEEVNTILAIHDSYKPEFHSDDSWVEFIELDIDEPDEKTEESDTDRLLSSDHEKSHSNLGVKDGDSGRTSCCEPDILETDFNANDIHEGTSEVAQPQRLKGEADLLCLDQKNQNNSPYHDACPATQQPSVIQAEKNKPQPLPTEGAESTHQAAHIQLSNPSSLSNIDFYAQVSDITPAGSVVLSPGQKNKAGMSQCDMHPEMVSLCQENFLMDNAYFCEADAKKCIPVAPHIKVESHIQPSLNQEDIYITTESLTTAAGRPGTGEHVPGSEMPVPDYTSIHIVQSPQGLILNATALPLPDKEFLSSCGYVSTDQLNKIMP

| Substance | EC50 (nM) of STAT5 phosphorylation in IM-9 cells |
| --- | --- |
| N-6His N99pAF hGH (from UniProt P01241 27-217) (ligand) | 8.5 nM |
| N-6His S95pAF hGH (from UniProt P01241 27-217) (ligand) | 16.7 nM |
| N-6His Y111pAF hGH (from UniProt P01241 27-217) (ligand) | 1 nM |
| N-6His E88pAF hGH (from UniProt P01241 27-217) (ligand) | 0.9 nM |
| N-6His T135pAF hGH (from UniProt P01241 27-217) (ligand) | 0.9 nM |
| N-6His Y143pAF hGH (from UniProt P01241 27-217) (ligand) | 0.8 nM |
| N-6His F92pAF hGH (from UniProt P01241 27-217) (ligand) | 0.8 nM |
| N-6His K140pAF hGH (from UniProt P01241 27-217) (ligand) | 2.7 nM |
| N-6His A155pAF hGH (from UniProt P01241 27-217) (ligand) | 1.3 nM |
| N-6His G136pAF hGH (from UniProt P01241 27-217) (ligand) | 1.4 nM |
| N-6His Y103pAF hGH (from UniProt P01241 27-217) (ligand) | 130000 nM |
| N-6His F139pAF hGH (from UniProt P01241 27-217) (ligand) | 3.3 nM |
| rat GH WT (from UniProt P01244 27-216) (ligand) | > 200000 nM |
| N-6His Q91pAF hGH (from UniProt P01241 27-217) (ligand) | 2 nM |
| N-6His G131pAF hGH (from UniProt P01241 27-217) (ligand) | 0.8 nM |
| N-6His R134pAF hGH (from UniProt P01241 27-217) (ligand) | 0.9 nM |
| N-6His P133pAF hGH (from UniProt P01241 27-217) (ligand) | 1 nM |
